Legend:
[1] = target: T1, Cul3NΔ22 (human Cul3 N-terminal domain, residues 23–388, I342R L346D) (human, UniProt Q13618 23-388, I342R | L346D); assay: ITC; 25 °C; 20 mM HEPES, 200 mM NaCl, 1 mM DTT; […] (70–[…]) […]; details: both partners purified
T1 construct: also called Cul3–NTD; Cu3NΔ22

[2] = target: T2, Cul3N (human Cul3 N-terminal domain, residues 1–388, I342R L346D) (human, UniProt Q13618 1-388, I342R | L346D); assay: as above; details: both partners purified
T2 construct: also called Cul3–NTD

[3] = target: the molecule itself; assay: […]; room temperature; […]; 20 mM HEPES, 150 mM NaCl, 2 mM DTT; […]

T1 sequence (Q13618 23-388 I342R/L346D): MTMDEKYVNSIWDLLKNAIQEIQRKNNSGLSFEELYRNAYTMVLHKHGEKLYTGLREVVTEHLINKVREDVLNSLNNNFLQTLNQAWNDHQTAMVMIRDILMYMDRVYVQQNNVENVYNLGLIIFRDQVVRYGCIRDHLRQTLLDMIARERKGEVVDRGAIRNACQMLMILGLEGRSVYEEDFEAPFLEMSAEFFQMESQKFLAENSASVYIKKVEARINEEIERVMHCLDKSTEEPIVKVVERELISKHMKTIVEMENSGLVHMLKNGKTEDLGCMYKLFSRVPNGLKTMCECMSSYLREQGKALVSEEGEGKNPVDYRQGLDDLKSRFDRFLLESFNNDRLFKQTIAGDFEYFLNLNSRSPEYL
T2 sequence (Q13618 1-388 I342R/L346D): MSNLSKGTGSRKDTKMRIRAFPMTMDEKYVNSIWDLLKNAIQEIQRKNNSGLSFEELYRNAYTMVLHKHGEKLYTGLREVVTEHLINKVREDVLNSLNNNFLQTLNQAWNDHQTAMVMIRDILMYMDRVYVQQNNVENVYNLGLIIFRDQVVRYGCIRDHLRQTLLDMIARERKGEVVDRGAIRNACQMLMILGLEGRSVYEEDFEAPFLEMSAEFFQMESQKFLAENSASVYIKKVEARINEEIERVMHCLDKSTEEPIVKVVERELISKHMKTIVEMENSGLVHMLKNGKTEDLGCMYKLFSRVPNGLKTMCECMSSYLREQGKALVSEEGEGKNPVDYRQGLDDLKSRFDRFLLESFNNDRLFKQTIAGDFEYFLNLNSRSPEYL

B1: A55BB (A55 BTB-BACK domain, residues 1–250), wild type (domain or fragment)
chain: MNNSSELIAVINGFRNSGRFCDISIVINDERINAHKLILSGASEYFSILFSNNFIDSNEYEVNLSHLDYQSVNDLIDYIYGIPLSLTNDNVKYILSTADFLQIGSAITECENYILKNLCSKNCIDFYIYADKYNNKKIESASFNTILQNILRLINDENFKYLTEESMIKILSDDMLNIKNEDFAPLILIKWLESTQQSCTVELLRCLRISLLSPQVIKSLYSHQLVSSIYECITFLNNIAFLDESFPRYH
For B1, the Kd [1] was 5.3 nM, the dH [1] was -9.9 kcal/mol and the Kd [2] was less than 1 nM. The dH [2] was -17.7 kcal/mol and the “stoichiometry N” value [3] was 2.
